The data set concerns the molecule itself. The experiment in a line: SEC + other: glycerol gradient sedimentation.

B1: polyhistidine-tagged full length TFG-1 (natural protein, C. elegans, UniProt Q9U1W1 1-486, looked up)
chain: MVHSNGAITSTILKARHADVVRKTSLHHANDLTLIDLVLNVQRLLALPSDANFVLKYKDEEGDLVTLAEDSDLLLALHTSGATLDVTVVVDSRAREAVHDVQKQVEQIKLDVGKLLGALSALDVAQIAEQSNTSVANLSAPKQSHHDNIVFQKSFEAAPPSPVPSEKAELPATIQPSVHEQFNHRPAHVEEEIPLENHYAPPPHQQIPDDLNTSFSSQPPPPIEQFGAIPPPNATIPSFPTSNAASPPVQEFAPPPPQQQQQQFQAPPPPMASHSSISSTPVQQQGFAPPQQFGGPPPSGPPSEYGGYAPPQQQQQQFGAPPPQGAPQQGFGAPPQGPPQGGPPQGSFGAPPPQQFHAPSPQSFGGPPPPVSSAPGNFAPPPQSGPPGAFAPPPSAFGAPQGPGGPGGYGPPPPGGPGAPGSYGPPQGGPGGFGPPPPGGPGAYGPPPTGFPPVGAPPPGAAGAPGGNPFARGPSATGYRQSPYQQ
Usually stoichiometry N stands for a count of units in the complex or per binding partner. Regarding B1, the “stoichiometry N” value was 6.

B2: polyhistidine-tagged TFG-1 amino-terminus (amino acids 1-195) (domain or fragment, C. elegans, UniProt Q9U1W1 1-195, looked up)
chain: MVHSNGAITSTILKARHADVVRKTSLHHANDLTLIDLVLNVQRLLALPSDANFVLKYKDEEGDLVTLAEDSDLLLALHTSGATLDVTVVVDSRAREAVHDVQKQVEQIKLDVGKLLGALSALDVAQIAEQSNTSVANLSAPKQSHHDNIVFQKSFEAAPPSPVPSEKAELPATIQPSVHEQFNHRPAHVEEEIPL
For B2, the “stoichiometry N” value turned out to be 8.
